Experimental data reported in US20230181718A1.

Target: Endo-H treated SApNPs
Experiment: BLI, Octet RED96; Endo-H treated against wildtype SApNPs

VRC01 (antibody)
fold higher binding than the wildtype SApNPs: 2 to 3.5 fold
